The test system of one data set is α-SMA mRNA. The data set is described as follows: RT-PCR for α-SMA mRNA in fibroblasts. Format: cell-based, chicken. The method, then:
Total RNA for α-SMA was extracted using TRIzol reagent from untreated fibroblasts, fibroblasts treated with 750 ng/ml cCAF or fibroblasts treated for varying periods of time with cCAF. The RT-PCR procedure was performed using the Promega Access RT-PCR System, which is designed to finish reverse transcription (RT) and polymerase chain reaction (PCR) in one tube, and following the protocol recommended by Promega, except that 1.5 times the recommended amount of dNTP, reverse transcriptase and Tfl DNA polymerase were used to ensure strong synthesis of 18S ribosomal RNA. The reaction conditions included: 1 μg total RNA, first strand synthesis at 48° C. for 45 min, then 95° C. for 5 min to inactivate the reverse transcriptase, followed by DNA amplification at 95° C. for 45 sec, 58° C. for 60 sec, 68° C. for 90 sec for 40 cycles. Finally, 68° C. for 7 min to extent the strands. 2 μl of Quantum mRNA classic 18S primers (Ambion) were added to reaction to produce the control band. The followin primers used for the amplification of α-SMA: […]
RT-PCR products were analyzed by electrophoresis in 1.5% agarose and the density of the bands was measured by densitometry using Glyko BandScan.

The subject of data set [1] is α-SMA. The data set is described as follows: Immunostaining for α-SMA in fibroblast cultures and collagen gel sections. Format: cell-based, chicken. The procedure: Plates of fibroblasts were treated with cCAF as described previously. After 4 days, the cells were rinsed with PBS, fixed in 4% paraformaldehyde, permeabilized with 0.15% Triton X-100 and incubated with PBS containing 0.1M glycine for 10 min. Cells were blocked for 30 min with 10% goat serum in PBS, incubated with mouse anti-α-SMA, to a final IgG concentration of 20 μg/ml, in 1% BSA/PBS for 1hr at room temperature (RT), and washed three times with 0.1% BSA/PBS for 10 min each. The cells were then incubated in goat anti-mouse FITC or sheep anti-mouse Texas Red (1:100) in 1% BSA/PBS for 1 hr at RT, washed three times for 10 min with 0.1% BSA in PBS and mounted with Vectashield. Collagen gels were rinsed with PBS, fixed in 4% paraformaldehyde for 2 hr, washed three times 30 min each with PBS, and incubated for an additional 30 min in PBS containing 0.1M glycine. This treatment was followed by incubation at 4° C. overnight in 15% sucrose and then incubated under the same conditions in 30% sucrose. After a brief rinse with PBS, the gels were frozen in OCT, sections prepared and collected on gelatin-coated slides, rinsed with PBS, fixed in 4% paraformaldehyde for 10 min, and then incubated again in PBS containing 0.1M glycine for 10 min. This was followed by blocking for 30 min with 10% goat serum in PBS, incubation in primary and secondary antibody as described above, and mounting with Vectashield.

In data set [2] the test system is α-SMA. The experiment in a line: Immunoblotting for α-SMA in fibroblast extracts. The following applies: 750 ng/ml; versus untreated or C-peptide treated cells. The data set is classed as cell-based, chicken. The method, then:
Plates of fibroblasts were treated as described previously, with 750 ng/ml cCAF or 2.5 ng/ml TGFβ. To block TGFβ, or cCAF activity, anti-cCAF (3 μl) or anti-TGFβ (1 μl) antibody was pre-incubated in 1 ml media for 1 hr at room temperature before being added to cells. After 4 days of treatment, protein extracts were prepared in 1 ml 150 mM RIPA buffer containing protease inhibitors. Protein concentrations were determined using the DC protein assay kit and samples were adjusted to contain equal amounts of protein. SDS-PAGE was performed on 7.5% separating Doucet gels (Doucet and Trifaro, 1988). Protein transfer to nitrocellulose was performed using a wet-transfer apparatus (Bio-Rad) at 100V for 45 min. The membranes were blocked for 1 hr in 5% milk in TTBS and then incubated overnight at 4° C. in mouse anti-α-SMA, to a final IgG concentration of 5 μg/ml, in 1% milk in TTBS. The membranes were washed 3 times for 20 min each with TTBS, incubated in anti-mouse HRP at 1:10,000 in 1% milk for 1hr and washed as above, and the bands visualized using the ECL.
In general terms: Immunoblotting shows a protein as a band on a membrane.

The subject of data set [3] is chicken chorioallantoic membrane (CAM). Particulars: cited from earlier work.
Data set [4] has as its system primary chicken embryonic connective tissue fibroblasts. The experiment in a line: Fibroblast growth assay. The data set is classed as cell-based. The method, then:
Primary chicken embryonic connective tissue fibroblasts (CEFs) were cultured as previously described in Martins-Green and Feugate (1998). Briefly, these fibroblasts were isolated from 10-day-old chicken embryo body walls, plated at 6×10^6 cells/100 mm plate and cultured for 4 days in 199 medium with 5% donor calf serum, 1% chick serum and 0.3% tryptose phosphate broth. These cultures were passaged once (secondary cultures); the cells were plated at 0.4×10^6 cells/35 mm plate in 199/tryptose phosphate broth and 2% donor calf serum.
Secondary fibroblasts were plated at 0.4×10^6 cells/35 mm plate and cCAF was added to experimental plates. For each experiment, plating efficiency was determined by trypsinizing plates four hours after plating. Cells were counted with a Coulter particle counter to confirm even plating of cells. The media was replaced approximately every 16 hr with 1 ml of […] 199 medium containing 0.3% tryptose phosphate broth and 2% donor calf serum, and 100-1000 ng cCAF [9-90 nM] or C- or N-peptide [64-640 nM] was added to the experimental plates, whereas, control plates contained media only. On day 3, plates were trypsinized to remove all cells and cells were counted using a Coulter counter. To test for specificity, anti-cCAF rabbit serum was pre-incubated with cCAF (3 μl serum/750 ng cCAF [68 nM] or N-peptide [480 nM]) for 1 hr at room temperature before being added to cells.

Data set [5] shares this test system. The experiment in a line: Acridine orange/ethidium bromide staining for apoptotic cells. The data set is classed as cell-based. The following applies: cCAF-treated fibroblasts. The procedure:
Plates of fibroblasts treated with cCAF as described above were rinsed twice with PBS and incubated in 0.1 mg/ml acridine orange/ethidium bromide in PBS for 1 min. After rinsing twice with PBS and adding a cover slip, the cells were immediately viewed by epifluorescence microscopy and random fields were photographed. The number of cells with blebbing cytoplasm and fragmented nuclei were counted from the entire field of each photograph.

We go through one molecule from patent US6962971B2, “Chemokines and methods for inducing the differentiation of fibroblasts to myofibroblasts” (The Regents of the University of California, priority 2001, dated 2005).

Where “and” joins values, the source holds several entries; their conditions need not be identical. Equal values may be shown once. Entries after “also recorded” stand apart in the source; their conditions may differ.

B1: cCAF: CXC chemokine chicken Chemotactic and Angiogenic Factor, full-length, SEQ ID NO:2; purified or synthesized (protein)
chain: LSQGRTLVKMGNELRCQCISTHSKFIHPKSIQDVKLTPSGPHCKNVEIIATLKDGREVCLDPTAPWVQLIVKALMAKAQLNSDAPL
modifications: Gallusgallus
notes: purified or synthesized
For B1, in the data set on α-SMA mRNA (750 ng/ml cCAF), the “time by which α-SMA mRNA drops below control levels” value was not above 24 h, the “time to increase in α-SMA mRNA levels” value is not above 1 h and the “time α-SMA mRNA levels remain elevated after treatment” value is “up to 12 hr”. Also, the “period with increasing amounts of α-SMA mRNA relative to control” value with α-SMA mRNA (after initiation of treatment, normalized to 18S rRNA) was in the range of 1 to 12 h. Besides, in the data set on α-SMA [1] (versus control gels), the “α-SMA immunolabeling of sections of fibroblast-seeded collagen gels” value was “more cells with fibers staining for α-SMA than control gels”. Also, the “α-SMA immunolabeling of cultured fibroblasts” value in the data set on α-SMA [1] (versus untreated control cells) is listed as “more fibroblasts are stained for α-SMA; also recorded: many more cells showing intense staining for fiber bundles”. In addition, the “α-SMA levels by immunoblot” value with α-SMA [2] was “much higher levels of α-SMA; also recorded: increased levels of α-SMA”. Also, in data set [3] (high concentrations, in the absence of leukocyte chemotaxis), the “angiogenesis in the CAM” value was “stimulates blood vessel sprouting from the preexisting vessels of the CAM”. The “leukocyte chemotaxis in the CAM” value in data set [3] (low doses) is “chemotactic for monocyte/macrophages and lymphocytes”. For the same molecule, the “time required for the decrease in cell numbers to be detected” value in data set [4] is 2 to 3 days. The “effect on fibroblast growth / cell numbers” value in data set [4] (3 days treatment, 2% donor calf serum) is reported as “suppresses fibroblast proliferation in a dose-dependent pattern”. Moreover, in data set [4] (3 days treatment, increasing doses of cCAF), the “dose of greatest (maximum) suppression of fibroblast proliferation” value is 750 ng/mL and 500 to 750 ng/mL. Moreover, in data set [4] (after plating, not shown), the “time of greatest suppression of proliferation” value is on record as 2 days. The “suppression of fibroblast proliferation compared to untreated cells” value in data set [4] (fibroblasts cultured in the presence of serum (2% donor calf serum), p<0.01) is recorded as 25%. The “fibroblast growth relative to untreated cells” value in data set [4] (of untreated cells) is given as “about 75%”. For the same molecule, the “apoptotic morphology (cytoplasmic blebbing, nuclear fragmentation)” value in data set [5] is “do not show the characteristics of apoptotic cells; also recorded: compact cytoplasm and an intact nucleus characteristic of healthy cells”.
